# Experimental data published in patent publication US20120141382, “APTAMER MODULATORS OF COMPLEMENT PROTEIN C3 AND BIOLOGICALLY ACTIVE PROTEOLYTIC PRODUCTS THEREOF” (Research Foundation of State University of New York at …, published 2012).
# B1: AptC3-1 (ssRNA)
# RNA: GGGAGAAUUCAACUGCCAUCUAGGCUAGAAGAAUAUGACGGAUUGACCGUAUCAGGGUAGCCGAAGGGAGACAGAAGUACUACAAGCUUCUGGACUCGGU
# B2: AptC3-2 (ssRNA)
# RNA: GGGAGAAUUCAACUGCCAUCUAGGCAAAUCCGCGAGCGCCGGUACCGGUGGCGCAUGCCCACACAGCACUAAACGAGUACUACAAGCUUCUGGACUCGGU
# Assays:
# Complement C3b [1] = molecular target: T1, Complement C3b (Homo sapiens, UniProt P01024;P01024 P01024:23-667,P01024:749-1663); experiment: filter; 20 mM Tris-HCl pH 7.6, 150 mM NaCl, 10 mM MgCl2; minimized version may have been used; settings: tags: Quidel; label: 32P-CTP uniform
# T1 sequence (P01024 23-667, chain 1 of 2): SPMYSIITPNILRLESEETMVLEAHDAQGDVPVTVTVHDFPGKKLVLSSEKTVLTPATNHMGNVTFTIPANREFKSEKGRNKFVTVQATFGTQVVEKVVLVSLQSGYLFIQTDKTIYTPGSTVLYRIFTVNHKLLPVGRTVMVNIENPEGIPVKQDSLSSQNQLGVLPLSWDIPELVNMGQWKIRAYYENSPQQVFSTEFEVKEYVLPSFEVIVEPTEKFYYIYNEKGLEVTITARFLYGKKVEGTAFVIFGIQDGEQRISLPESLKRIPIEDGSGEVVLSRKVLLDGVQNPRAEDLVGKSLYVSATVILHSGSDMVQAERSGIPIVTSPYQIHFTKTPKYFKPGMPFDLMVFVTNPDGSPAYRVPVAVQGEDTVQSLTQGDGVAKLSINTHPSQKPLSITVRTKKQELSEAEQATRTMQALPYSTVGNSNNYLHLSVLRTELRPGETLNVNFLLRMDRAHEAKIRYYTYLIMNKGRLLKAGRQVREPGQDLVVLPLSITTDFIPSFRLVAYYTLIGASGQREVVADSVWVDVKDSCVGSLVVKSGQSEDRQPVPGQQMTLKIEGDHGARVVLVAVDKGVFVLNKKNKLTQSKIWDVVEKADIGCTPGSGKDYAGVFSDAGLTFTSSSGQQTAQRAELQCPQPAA
# T1 sequence (P01024 749-1663, chain 2 of 2): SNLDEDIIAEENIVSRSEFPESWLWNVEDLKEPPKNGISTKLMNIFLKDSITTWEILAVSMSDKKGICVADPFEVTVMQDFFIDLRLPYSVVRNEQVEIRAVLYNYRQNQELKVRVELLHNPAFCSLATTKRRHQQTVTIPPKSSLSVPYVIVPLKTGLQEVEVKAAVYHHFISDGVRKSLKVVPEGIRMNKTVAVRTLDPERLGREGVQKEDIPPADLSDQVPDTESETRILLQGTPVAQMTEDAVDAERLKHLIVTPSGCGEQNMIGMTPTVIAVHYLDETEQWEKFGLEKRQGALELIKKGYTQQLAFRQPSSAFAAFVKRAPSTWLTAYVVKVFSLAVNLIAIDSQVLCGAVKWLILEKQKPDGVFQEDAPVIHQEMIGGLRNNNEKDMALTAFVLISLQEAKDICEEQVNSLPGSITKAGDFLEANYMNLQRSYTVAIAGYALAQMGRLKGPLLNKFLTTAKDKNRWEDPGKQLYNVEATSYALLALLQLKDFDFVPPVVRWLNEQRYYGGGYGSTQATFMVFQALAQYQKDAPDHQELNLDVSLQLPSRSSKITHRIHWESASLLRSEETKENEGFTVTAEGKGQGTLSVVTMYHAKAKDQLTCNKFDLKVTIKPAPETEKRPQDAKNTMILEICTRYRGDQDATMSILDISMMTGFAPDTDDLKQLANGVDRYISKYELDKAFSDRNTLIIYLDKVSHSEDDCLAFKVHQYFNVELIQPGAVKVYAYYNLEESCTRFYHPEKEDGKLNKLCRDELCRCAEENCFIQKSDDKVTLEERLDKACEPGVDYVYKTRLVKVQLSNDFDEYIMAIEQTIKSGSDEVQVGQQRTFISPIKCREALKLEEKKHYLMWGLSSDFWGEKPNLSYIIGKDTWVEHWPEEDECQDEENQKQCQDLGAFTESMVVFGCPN
# Method: (§1) Initially, RNA was heated to 65° C. for 10 minutes then switched to 37° C. for an additional 10 minutes before the addition of protein. The reactions were allowed to equilibrate for 15-20 minutes at ambient temperature before being subjected to Electrophoretic Mobility Shift Assay (“EMSA”) or filter binding.
# (§2) For filter binding, the above-mentioned reaction mixture was immobilized on nitrocellulose (Millipore) using a manifold (Millipore) or a Bio-Dot SF (slot format) Microfiltration System (Bio-Rad, Hercules, Calif.). The nitrocellulose membrane was first soaked in binding buffer containing 20 mM Tris-Cl (pH 7.6), 150 mM NaCl, 10 mM MgCl₂. Nitrocellulose and two pieces of 3M Whatmann filter paper (3M) were assembled in the manifold as per company recommendations. Each well was washed with 1 ml of binding buffer. Samples were loaded in the wells and vacuum was applied to bind the complex, then each well was washed with 2 ml of binding buffer. The nitrocellulose membrane was then air dried and exposed to a phosphor screen (GE Healthcare) for 1 hour. The image was scanned using a Typhoon imager and ImageQuant software and the data was analyzed.
# Complement iC3b [2] = molecular target: T2, Complement iC3b (Homo sapiens, UniProt P01024;P01024;P01024 P01024:23-667,P01024:749-1303,P01024:1321-1663); experiment: as above; settings: tags: Calbiochem; label: 32P-CTP uniform
# T2 sequence (P01024 23-667, chain 1 of 3): as the sequence (P01024 23-667, chain 1 of 2) above
# T2 sequence (P01024 749-1303, chain 2 of 3): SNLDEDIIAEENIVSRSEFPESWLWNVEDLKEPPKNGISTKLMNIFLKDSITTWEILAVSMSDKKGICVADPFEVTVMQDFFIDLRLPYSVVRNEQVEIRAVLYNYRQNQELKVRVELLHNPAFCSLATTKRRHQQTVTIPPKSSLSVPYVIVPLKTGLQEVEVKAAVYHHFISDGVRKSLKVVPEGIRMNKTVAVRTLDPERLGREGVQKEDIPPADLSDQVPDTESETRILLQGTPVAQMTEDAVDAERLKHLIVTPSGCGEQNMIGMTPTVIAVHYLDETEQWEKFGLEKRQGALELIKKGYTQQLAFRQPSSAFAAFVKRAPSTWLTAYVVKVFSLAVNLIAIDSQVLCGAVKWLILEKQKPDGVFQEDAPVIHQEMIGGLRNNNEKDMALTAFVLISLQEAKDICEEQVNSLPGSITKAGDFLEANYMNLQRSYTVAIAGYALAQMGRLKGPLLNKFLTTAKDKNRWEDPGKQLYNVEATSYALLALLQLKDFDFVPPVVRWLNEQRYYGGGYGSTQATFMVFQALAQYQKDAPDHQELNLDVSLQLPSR
# T2 sequence (P01024 1321-1663, chain 3 of 3): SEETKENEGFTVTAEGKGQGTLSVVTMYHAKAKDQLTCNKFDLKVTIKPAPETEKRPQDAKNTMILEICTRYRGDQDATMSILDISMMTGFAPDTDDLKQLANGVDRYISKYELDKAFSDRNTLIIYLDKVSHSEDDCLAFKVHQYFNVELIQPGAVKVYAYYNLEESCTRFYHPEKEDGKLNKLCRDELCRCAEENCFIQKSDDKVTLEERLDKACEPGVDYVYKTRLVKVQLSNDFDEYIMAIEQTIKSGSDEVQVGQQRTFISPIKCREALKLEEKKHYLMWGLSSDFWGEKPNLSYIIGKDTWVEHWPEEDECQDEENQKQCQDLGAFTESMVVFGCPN
# Method: as §1, §2
# Complement C3 [3] = molecular target: T3, Complement C3 (Homo sapiens, UniProt P01024;P01024 P01024:23-667,P01024:672-1663); experiment: as above; settings: tags: Calbiochem; label: 32P-CTP uniform
# T3 sequence (P01024 23-667, chain 1 of 2): as the sequence (P01024 23-667, chain 1 of 2) above
# T3 sequence (P01024 672-1663, chain 2 of 2): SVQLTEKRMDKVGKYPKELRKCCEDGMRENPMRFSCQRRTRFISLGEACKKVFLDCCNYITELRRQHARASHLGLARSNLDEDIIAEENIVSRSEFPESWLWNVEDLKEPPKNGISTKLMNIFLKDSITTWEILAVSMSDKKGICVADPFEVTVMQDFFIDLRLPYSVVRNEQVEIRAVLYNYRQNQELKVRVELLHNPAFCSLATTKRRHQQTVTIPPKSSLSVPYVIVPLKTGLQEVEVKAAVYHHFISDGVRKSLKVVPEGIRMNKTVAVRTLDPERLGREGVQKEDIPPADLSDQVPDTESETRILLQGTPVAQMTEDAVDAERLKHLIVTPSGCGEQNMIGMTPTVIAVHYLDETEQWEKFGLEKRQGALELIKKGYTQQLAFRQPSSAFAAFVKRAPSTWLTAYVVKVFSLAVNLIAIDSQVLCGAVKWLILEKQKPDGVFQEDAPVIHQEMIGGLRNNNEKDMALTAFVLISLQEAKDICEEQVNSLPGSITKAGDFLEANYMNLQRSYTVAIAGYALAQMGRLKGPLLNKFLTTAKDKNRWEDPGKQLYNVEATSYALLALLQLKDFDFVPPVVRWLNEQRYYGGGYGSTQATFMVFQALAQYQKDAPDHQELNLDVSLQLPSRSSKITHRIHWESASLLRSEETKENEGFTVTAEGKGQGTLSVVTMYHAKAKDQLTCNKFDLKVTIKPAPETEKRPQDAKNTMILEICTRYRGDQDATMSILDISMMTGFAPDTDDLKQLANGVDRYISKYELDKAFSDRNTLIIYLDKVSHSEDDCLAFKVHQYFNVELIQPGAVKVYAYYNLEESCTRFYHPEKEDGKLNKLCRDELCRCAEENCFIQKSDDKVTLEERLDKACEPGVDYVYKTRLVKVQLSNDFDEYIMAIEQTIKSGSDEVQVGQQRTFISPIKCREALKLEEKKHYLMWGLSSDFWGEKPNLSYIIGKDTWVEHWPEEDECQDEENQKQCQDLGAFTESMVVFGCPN
# Method: as §1, §2
# Complement iC3b [4] = molecular target: T2, Complement iC3b; experiment: filter; no binding by filter assay and EMSA; settings: tags: Calbiochem; label: 32P-CTP uniform
# Method: as §1, §2
# Complement C3b [5] = molecular target: T1, Complement C3b; experiment: filter; 20 mM Tris-HCl pH 7.6, 150 mM NaCl, 10 mM MgCl2; settings: tags: Quidel; label: 32P-CTP uniform
# Method: as §1, §2
# Complement C3 [6] = molecular target: T3, Complement C3; experiment: filter; 20 mM Tris-HCl pH 7.6, 150 mM NaCl, 10 mM MgCl2; does not compete with AptC3-1; settings: tags: Calbiochem; label: 32P-CTP uniform
# Method: as §1, §2
# Complement C3b [7] = molecular target: T1, Complement C3b; experiment: EMSA; retarded band; settings: tags: Quidel; label: 32P-CTP uniform; hairpin with apical loop and internal loop
# Complement iC3b [8] = molecular target: T2, Complement iC3b; experiment: EMSA; retarded band; settings: tags: Calbiochem; label: 32P-CTP uniform; hairpin with apical loop and internal loop
# Complement C3 [9] = molecular target: T3, Complement C3; experiment: EMSA; retarded band; 2.5 mM MgCl2 gel, 4 C; settings: tags: Calbiochem; label: 32P-CTP uniform; hairpin with apical loop and internal loop
binder,measurement,setting,value
B1,Kd,Complement C3b [1],~20 nM
same,Kd,Complement iC3b [2],~20 nM
same,Kd,Complement C3 [3],~20 nM
B2,binding result,Complement iC3b [4],no binding
same,Kd,Complement C3b [5],30 nM
same,Kd,Complement C3 [6],30 nM
GGGCUAGAAGAAUAUGACGGAUUGACCGUAUCAGGGUAGCCG (ssRNA) [MiniAptC3-1],binding result,Complement C3b [7],binds
same,binding result,Complement iC3b [8],binds
same,binding result,Complement C3 [9],binds
